Reference: patent US20160030526A1 (GENERAL HOSPITAL, published 2016)

Biological target: monovalent murine IL-2 fusion toxin (DT390-mIL-2-6xHis)
Test: flow cytometry on CTLL-2 cells

B1: murine IL-2 receptor on murine CD25+ CTLL-2 cells (receptor)
chain 1: ELCLYDPPEVPNATFKALSYKNGTILNCECKRGFRRLKELVYMRCLGNSWSSNCQCTSNSHDKSRKQVTAQLEHQKEQQTTTDMQKPTQSMHQENLTGHCREPPPWKHEDSKRIYHFVEGQSVHYECIPGYKALQRGPAISICKMKCGKTGWTQPQLTCVDEREHHRFLASEESQGSRNSSPESETSCPITTTDFPQPTETTAMTETFVLTMEYKVAVASCLFLLISILLLSGLTWQHRWRKSRRTI
chain 2: AVKNCSHLECFYNSRANVSCMWSHEEALNVTTCHVHAKSNLRHWNKTCELTLVRQASWACNLILGSFPESQSLTSVDLLDINVVCWEEKGWRRVKTCDFHPFDNLRLVAPHSLQVLHIDTQRCNISWKVSQVSHYIEPYLEFEARRRLLGHSWEDASVLSLKQRQQWLFLEMLIPSTSYEVQVRVKAQRNNTGTWSPWSQPLTFRTRPADPMKEILPMSWLRYLLLVLGCFSGFFSCVYILVKCRYLGPWLKTVLKCHIPDPSEFFSQLSSQHGGDLQKWLSSPVPLSFFSPSGPAPEISPLEVLDGDSKAVQLLLLQKDSAPLPSPSGHSQASCFTNQGYFFFHLPNALEIESCQVYFTYDPCVEEEVEEDGSRLPEGSPHPPLLPLAGEQDDYCAFPPRDDLLLFSPSLSTPNTAYGGSRAPEERSPLSLHEGLPSLASRDLMGLQRPLERMPEGDGEGLSANSSGEQASVPEGNLHGQDQDRGQGPILTLNTDAYLSLQELQAQDSVHLI
chain 3: WSSKVLMSSANEDIKADLILTSTAPEHLSAPTLPLPEVQCFVFNIEYMNCTWNSSSEPQATNLTLHYRYKVSDNNTFQECSHYLFSKEITSGCQIQKEDIQLYQTFVVQLQDPQKPQRRAVQKLNLQNLVIPRAPENLTLSNLSESQLELRWKSRHIKERCLQYLVQYRSNRDRSWTELIVNHEPRFSLPSVDELKRYTFRVRSRYNPICGSSQQWSKWSQPVHWGSHTVEENPSLFALEAVLIPVGTMGLIITLIFVYCWLERMPPIPPIKNLEDLVTEYQGNFSAWSGVSKGLTESLQPDYSERFCHVSEIPPKGGALGEGPGGSPCSLHSPYWPPPCYSLKPEA
notes: whole, on cells; also called murine CD25+ IL-2 receptor
binding result: binds
